From paper PMC6468809, “Structural Analysis of the 42 kDa Parvulin of Trypanosoma brucei” (Biomolecules, 2019)
*1 amine or outer side, *2 acyl side, *3 side chain or, on linkers, in order; H or OH if unused. [ ]: non-standard residue; d: D form. pT = C[C@@H](OP(=O)(O)O)[C@H](N)C(=O)O; Suc = O=C(CCC(=O)[*:2])[*:1]

Biological target: TbPar42 N-terminal extended FHA domain (1-177) (T. brucei)
Assay: NMR titration; 440 uM 15N-labelled NterFHA or PPIase in 50 mM potassium phosphate, pH 6.26, 90%/10% H2O/D2O; peptide added stepwise to 13 mM; 1H-15N-HSQC or SOFAST spectra, 700 MHz, 27 °C

- Kd: 4 mM
B1: Suc-Ala-pThr-Pro-Ala-NH2 (peptide)
peptide: Suc-A[pT]PA-NH2
SMILES: C[C@H](NC(=O)[C@@H]1CCCN1C(=O)[C@@H](NC(=O)[C@H](C)NC(=O)CCC(=O)O)[C@@H](C)OP(=O)(O)O)C(N)=O
